Test results reported in patent US20180147232.

Columns and labels:
[1] = molecular target: Flag-TSC2, P49815
[2] = molecular target: Flag-TSC2 6A, P49815
Sequence of Flag-TSC2 6A, P49815 (P49815 other isoform, or with tags, fused parts or gaps): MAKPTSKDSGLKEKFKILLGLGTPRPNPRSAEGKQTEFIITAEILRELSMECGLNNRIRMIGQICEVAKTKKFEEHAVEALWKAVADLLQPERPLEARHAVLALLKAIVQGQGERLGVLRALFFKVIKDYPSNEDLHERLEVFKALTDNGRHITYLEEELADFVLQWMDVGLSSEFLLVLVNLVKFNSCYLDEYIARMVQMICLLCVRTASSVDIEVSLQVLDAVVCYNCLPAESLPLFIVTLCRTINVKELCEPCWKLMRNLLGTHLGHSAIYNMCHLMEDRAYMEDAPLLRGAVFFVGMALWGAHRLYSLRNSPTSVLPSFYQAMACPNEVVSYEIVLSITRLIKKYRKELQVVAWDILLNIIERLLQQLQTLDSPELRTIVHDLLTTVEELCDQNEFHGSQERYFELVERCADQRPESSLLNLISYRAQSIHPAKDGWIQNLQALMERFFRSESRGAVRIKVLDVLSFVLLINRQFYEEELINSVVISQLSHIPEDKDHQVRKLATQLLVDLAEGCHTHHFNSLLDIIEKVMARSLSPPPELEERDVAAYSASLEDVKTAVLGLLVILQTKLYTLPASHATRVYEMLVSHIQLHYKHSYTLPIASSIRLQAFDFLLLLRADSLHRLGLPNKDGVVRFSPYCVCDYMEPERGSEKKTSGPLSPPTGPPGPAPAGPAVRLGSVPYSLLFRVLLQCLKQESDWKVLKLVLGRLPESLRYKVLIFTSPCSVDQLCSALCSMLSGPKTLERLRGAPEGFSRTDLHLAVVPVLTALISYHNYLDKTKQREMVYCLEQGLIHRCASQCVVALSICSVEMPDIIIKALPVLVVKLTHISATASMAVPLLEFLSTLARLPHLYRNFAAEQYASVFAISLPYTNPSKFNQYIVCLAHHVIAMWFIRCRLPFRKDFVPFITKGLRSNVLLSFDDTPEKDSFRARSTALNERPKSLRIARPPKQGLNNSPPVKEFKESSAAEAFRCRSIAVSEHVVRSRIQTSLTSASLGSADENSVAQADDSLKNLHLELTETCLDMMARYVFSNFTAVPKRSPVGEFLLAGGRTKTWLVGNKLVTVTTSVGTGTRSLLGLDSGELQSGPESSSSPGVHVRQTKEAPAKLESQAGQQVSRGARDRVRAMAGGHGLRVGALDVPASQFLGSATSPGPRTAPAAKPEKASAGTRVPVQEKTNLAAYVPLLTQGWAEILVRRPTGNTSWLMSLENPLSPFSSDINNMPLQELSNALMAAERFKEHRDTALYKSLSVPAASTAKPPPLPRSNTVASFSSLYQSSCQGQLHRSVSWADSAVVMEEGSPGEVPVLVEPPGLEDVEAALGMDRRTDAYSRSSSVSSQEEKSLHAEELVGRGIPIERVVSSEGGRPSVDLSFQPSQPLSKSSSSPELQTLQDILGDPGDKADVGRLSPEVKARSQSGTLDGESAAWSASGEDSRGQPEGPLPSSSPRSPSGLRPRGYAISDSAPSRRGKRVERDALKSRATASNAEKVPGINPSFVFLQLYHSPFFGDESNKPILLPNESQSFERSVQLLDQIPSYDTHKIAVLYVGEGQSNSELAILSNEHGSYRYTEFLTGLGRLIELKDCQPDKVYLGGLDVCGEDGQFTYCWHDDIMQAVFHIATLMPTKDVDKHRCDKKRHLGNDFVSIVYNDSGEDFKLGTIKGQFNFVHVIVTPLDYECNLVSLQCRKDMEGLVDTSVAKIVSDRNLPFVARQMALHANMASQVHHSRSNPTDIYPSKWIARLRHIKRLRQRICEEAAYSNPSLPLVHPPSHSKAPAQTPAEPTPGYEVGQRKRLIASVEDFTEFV

Sequence of Flag-TSC2, P49815 (P49815 whole entry): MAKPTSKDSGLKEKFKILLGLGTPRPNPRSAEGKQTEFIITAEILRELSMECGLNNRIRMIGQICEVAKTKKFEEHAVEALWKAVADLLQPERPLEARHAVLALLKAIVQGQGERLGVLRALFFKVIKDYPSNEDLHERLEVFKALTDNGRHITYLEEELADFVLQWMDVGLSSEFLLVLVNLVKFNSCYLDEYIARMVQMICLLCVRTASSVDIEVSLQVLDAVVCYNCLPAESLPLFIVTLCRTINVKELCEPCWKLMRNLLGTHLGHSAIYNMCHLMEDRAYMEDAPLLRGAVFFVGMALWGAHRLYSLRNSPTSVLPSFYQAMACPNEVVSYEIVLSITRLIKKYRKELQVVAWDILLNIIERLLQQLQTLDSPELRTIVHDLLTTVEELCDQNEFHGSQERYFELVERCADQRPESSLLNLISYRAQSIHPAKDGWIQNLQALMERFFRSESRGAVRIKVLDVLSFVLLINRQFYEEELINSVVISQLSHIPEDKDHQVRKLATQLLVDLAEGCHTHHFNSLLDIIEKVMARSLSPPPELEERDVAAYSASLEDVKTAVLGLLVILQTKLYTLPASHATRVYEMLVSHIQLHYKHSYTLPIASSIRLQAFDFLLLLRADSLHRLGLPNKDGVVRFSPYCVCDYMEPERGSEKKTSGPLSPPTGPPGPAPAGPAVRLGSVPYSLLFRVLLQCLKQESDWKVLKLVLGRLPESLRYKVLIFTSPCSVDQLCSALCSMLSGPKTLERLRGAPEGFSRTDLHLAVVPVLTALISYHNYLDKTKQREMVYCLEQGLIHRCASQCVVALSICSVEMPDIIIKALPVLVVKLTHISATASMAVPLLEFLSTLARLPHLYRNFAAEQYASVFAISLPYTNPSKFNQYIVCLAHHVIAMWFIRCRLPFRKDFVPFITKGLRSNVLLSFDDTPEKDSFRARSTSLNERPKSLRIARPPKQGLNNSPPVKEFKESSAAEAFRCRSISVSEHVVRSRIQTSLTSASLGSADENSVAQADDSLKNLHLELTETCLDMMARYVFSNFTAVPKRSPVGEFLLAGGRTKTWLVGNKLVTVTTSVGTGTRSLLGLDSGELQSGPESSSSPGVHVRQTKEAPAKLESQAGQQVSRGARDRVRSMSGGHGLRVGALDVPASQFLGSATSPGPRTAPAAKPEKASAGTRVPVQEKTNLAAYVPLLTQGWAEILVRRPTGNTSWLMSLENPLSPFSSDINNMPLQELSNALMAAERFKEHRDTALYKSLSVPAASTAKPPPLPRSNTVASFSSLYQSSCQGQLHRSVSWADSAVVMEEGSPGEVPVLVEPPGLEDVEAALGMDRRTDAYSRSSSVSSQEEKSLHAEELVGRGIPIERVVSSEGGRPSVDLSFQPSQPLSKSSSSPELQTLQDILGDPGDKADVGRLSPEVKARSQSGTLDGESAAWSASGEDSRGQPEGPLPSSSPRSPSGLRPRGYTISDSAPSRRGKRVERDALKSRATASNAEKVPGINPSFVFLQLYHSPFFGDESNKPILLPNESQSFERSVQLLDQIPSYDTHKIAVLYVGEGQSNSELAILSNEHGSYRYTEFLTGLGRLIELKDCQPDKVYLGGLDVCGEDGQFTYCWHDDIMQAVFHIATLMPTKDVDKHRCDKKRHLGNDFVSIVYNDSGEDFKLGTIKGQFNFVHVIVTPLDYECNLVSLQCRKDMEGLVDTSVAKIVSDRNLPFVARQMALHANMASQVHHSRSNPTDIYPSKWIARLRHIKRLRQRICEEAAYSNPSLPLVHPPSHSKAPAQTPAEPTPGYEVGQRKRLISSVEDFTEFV

B1: recombinant His-SGK1 (Δ60) (protein)
chain: ISQPQEPELMNANPSPPPSPSQQINLGPSSNPHAKPSDFHFLKVIGKGSFGKVLLARHKAEEVFYAVKVLQKKAILKKKEEKHIMSERNVLLKNVKHPFLVGLHFSFQTADKLYFVLDYINGGELFYHLQRERCFLEPRARFYAAEIASALGYLHSLNIVYRDLKPENILLDSQGHIVLTDFGLCKENIEHNSTTSTFCGTPEYLAPEVLHKQPYDRTVDWWCLGAVLYEMLYGLPPFYSRNTAEMYDNILNKPLQLKPNITNSARHLLEGLLQKDRTKRLGAKDDFMEIKSHVFFSLINWDDLINKKITPPFNPNVSGPNDLRHFDPEFTEEPVPNSIGKSPDSVLVTASVKEAAEAFLGFDYAPPTDSFL
Q: How did the “phosphorylation of S939, S981, T993, S1130, S1132, T1462 and S1798 of TSC2 by mass spectrometry after the in vitro kinase assay” value [1] turn out when B1 was run?
A: we found increased phosphorylation in all these sites, except at T993

Q: What about the “phosphorylation of the RXRXX(S/T) sites of TSC2, in vitro kinase assay” value [1] of the same protein?
A: The addition of recombinant SGK1 kinase increased the phosphorylation of the RXRXX(S/T) (SEQ ID NO: 1) sites of TSC2 independent of the AKT activity

Q: And the “phosphorylation of TSC2, in vitro kinase assay” value [2]?
A: Mutation of these six sites into the non-phosphorylatable amino acid alanine (TSC2 6A) completely abrogated the ability of SGK1 to phosphorylate TSC2 in vitro
